Each block holds one binder with its values, some of them ahead of it.
Assays:
human syndecan-1 (SDC1) [1] = biological target: T1, human syndecan-1 (SDC1) (human, UniProt P18827 23-310, heparan sulfate and chondroitin sulfate chains; the lacritin-bindable form is partly or wholly deglycanated (heparanase or heparitinase)); assay: soluble competitor in lacritin-intein affinity precipitation of SDC1
T1 construct: Seen as 190 kDa multimer and 80 kDa band on blots; also called cell surface SDC1; native SDC1
T1 sequence: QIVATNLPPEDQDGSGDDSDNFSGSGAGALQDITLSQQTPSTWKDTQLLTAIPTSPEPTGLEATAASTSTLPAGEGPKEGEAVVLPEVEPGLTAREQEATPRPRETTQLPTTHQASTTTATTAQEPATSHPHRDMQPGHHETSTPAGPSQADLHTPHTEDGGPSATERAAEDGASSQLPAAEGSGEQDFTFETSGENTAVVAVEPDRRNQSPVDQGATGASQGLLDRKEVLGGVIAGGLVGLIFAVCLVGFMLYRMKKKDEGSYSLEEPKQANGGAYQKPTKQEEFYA
Procedure: (§1) All lacritin truncations were expressed as intein fusion proteins for affinity precipitation. Asterisk indicates mitogenic domain (Wang et al, submitted), and boxes represent PSIPRED-predicted alpha helices. (B) Lacritin-, C-5-, C-10-, C-15-, C-25- and C-59-intein beads were incubated with lysates from HEK293T cells stably expressing human SDC1. Beads were washed and treated with heparitinase I/chondroitinase ABC. The digests were centrifuged, and pellets (P) and supernatants (S) blotted with mAb B-B4 for SDC1 core protein, all as in FIG. 2. (C) Incubation of lacritin-, N-15- and N-24-intein beads with the same human SDC1 lysates was followed with identical washing, heparitinase I/chondroitinase ABC digestion, centrifugation and B-B4 mAb blotting. Lys, lysate. Figure 3B: Figure 3C: Figure 4A: FIG. 4. Lacritin-SDC1 binding is inhibited by soluble hS1ED, lacritin and N-24, but not by C-25, C-59, HS, CS, SDC2 or SDC4. (A) Top row, lacritin-intein beads were incubated with human SDC1 lysates from stably expressing HEK293T cells in the presence of increasing amounts of soluble HS (70-700 µg), HS (700 µg) plus CS (700 µg), lacritin (14-700 µg) or no inhibitor (−). Quantity of soluble inhibitor was calibrated relative to the approximately 7-8 µg of human SDC1 elutable from lacritin-intein beads with 1 M NaCl. […] (B) Quantification of inhibition binding.

human syndecan-1 (SDC1) [2] = biological target: T1, human syndecan-1 (SDC1); assay: lacritin-intein-chitin column, detergent lysate of surface biotinylated HSG cells, 1 M NaCl elution, streptavidin blot, mass spectrometry
Procedure: Cell surface biotinylation, and affinity chromatography followed the method of Chen et al (1997). Briefly, six 150 mm culture dishes of 80% confluent HSG cells were washed twice on ice with ice-cold PBS and incubated for 30 min with EZ-Link Sulfo-NHS-LC Biotin (Pierce, Rockford Ill.). Cells were then washed twice with PBS-glycine, gently loosened with a cell scraper, and pelleted at 4° C. The pellet was twice resuspended in 25 ml PBS-glycine, and incubated for 30 min in 1 ml lysis buffer (50 mM Tris HCl, pH 7.4, 100 mM NaCl, 5 mM MnCl2, 2 mM PMSF, 200 mM n-octyl-β-D-glucopyranoside, and protease inhibitors (Roche Diagnostics, Penzberg Germany)). Lysate was centrifuged for 15 min at 4° C., and the supernatant applied to a 1 ml pre-column then washed through with 1 ml of binding buffer (50 mM Tris HCl, pH 7.4, 100 mM NaCl, 5 mM MnCl2, 2 mM PMSF, 50 mM n-octyl-β-D-glucopyranoside) and collected. […] For the latter, blots were blocked with PBS containing 0.1% Tween-20 and 2.5% milk for 1 h at 37° C., washed three times with PBS/0.1% Tween-20, incubated in 50 ml of 1:1000 streptavidin-horseradish peroxidase conjugate (Amersham Biosciences, Piscataway N.J.) in PBS/0.1% Tween-20, washed five times with the same buffer and then detected using ECL reagent (Pierce, Rockford Ill.). […]

human syndecan-4 (SDC4) = biological target: T2, human syndecan-4 (SDC4) (human, UniProt P31431 19-198, heparan sulfate chains); assay: SDC4 purified on FGF2-GST, salt eluted, heparitinase digested, incubated with lacritin-intein beads
T2 construct: also called native SDC4
T2 sequence (looked up): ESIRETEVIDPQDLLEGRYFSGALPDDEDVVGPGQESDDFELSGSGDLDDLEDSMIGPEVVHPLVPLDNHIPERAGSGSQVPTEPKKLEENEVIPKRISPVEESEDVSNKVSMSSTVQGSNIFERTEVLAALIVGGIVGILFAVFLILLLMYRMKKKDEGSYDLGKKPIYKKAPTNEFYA
Procedure: (§2) Lysates were cleared by centrifugation (20,000×g) at 4° C., and protein concentration of supernatant was estimated by the BCA assay (Pierce, Rockford Ill.). Lacritin-intein or lacritin-GST (5 µg) and FGF2-GST fusion proteins were respectively bound to chitin beads (New England Biolabs, Ipswich Mass.) or glutathione-Sepharose beads (Amersham Biosciences, Piscataway N.J.). Beads were incubated with lysates (~200 µg of SDC1 stably expressing HEK293T cells) overnight at 4° C., and washed three times with binding buffer as above (each wash three times the bead volume). In competition assays, SDC1 lysates were mixed with increasing amounts of soluble lacritin, HS, HS plus CS (Seikagaku America, Falmouth Mass.), bacterially expressed human SDC1 ectodomain (hS1ED), native SDC2, native SDC4, N-24 or C-25. Mixtures were then applied to lacritin immobilized beads, and further studied as described below. For sequential pull down assays, cell lysates were sequentially affinity precipitated with FGF2-GST or lacritin-intein. After FGF2-GST depletion of all available FGF-bindable SDC1, one-half was precipitated with lacritin-intein. The other half was methanol precipitated overnight and resuspended in heparitinase buffer. […]

human syndecan-2 (SDC2) = biological target: T3, human syndecan-2 (SDC2) (human, UniProt P34741 19-201, heparan sulfate chains); assay: SDC2 purified on FGF2-GST, salt eluted, heparitinase digested, incubated with lacritin-intein beads
T3 construct: also called native SDC2
T3 sequence (P34741 19-201 limits assumed): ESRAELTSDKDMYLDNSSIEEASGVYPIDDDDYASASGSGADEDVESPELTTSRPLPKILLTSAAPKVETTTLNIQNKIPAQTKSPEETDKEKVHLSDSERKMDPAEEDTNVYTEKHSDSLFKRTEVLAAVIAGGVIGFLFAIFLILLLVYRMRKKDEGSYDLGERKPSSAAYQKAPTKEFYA
Procedure: as §2

human syndecan-1 (SDC1) [3] = biological target: T1, human syndecan-1 (SDC1); assay: soluble competitor of lacritin-intein beads for SDC1 in HEK293T lysate, B-B4 blot
Procedure: as §1

human syndecan-1 (SDC1) [4] = biological target: T1, human syndecan-1 (SDC1); assay: N-24-intein beads, HEK293T/SDC1 lysate, B-B4 blot
Procedure: as §1

[5] = biological target: T4, alpha-2C-adrenergic receptor (ADRA2C) (human, UniProt P18825 1-462, limits assumed); assay: low salt competition against 125I-iodoclonidine on immobilized human ADRA2C, repeated assays
T4 sequence (looked up): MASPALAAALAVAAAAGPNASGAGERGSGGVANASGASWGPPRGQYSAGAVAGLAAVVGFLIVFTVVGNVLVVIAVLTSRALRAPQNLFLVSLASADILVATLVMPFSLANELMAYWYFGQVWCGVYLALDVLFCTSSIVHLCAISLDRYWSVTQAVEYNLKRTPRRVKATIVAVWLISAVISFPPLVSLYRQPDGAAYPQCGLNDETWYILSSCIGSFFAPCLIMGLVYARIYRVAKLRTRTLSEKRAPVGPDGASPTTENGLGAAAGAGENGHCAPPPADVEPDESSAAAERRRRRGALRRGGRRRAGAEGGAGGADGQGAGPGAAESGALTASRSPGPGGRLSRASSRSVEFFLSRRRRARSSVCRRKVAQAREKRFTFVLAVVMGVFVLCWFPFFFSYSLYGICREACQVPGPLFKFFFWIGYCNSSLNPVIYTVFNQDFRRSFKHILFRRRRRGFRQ
Procedure: If we are correct that syndecan-1 increases lacritin's affinity for a G-protein coupled receptor (GPCR), possibly some low affinity GPCR binding can be detected without syndecan-1 in low salt. To ask this question, a low salt screen of 31 immobilized human GPCRs in which 10 nM lacritin, N-24 or C-25 were asked to compete with 125I-receptor ligand for receptor binding. […] Although preliminary, this compares to 1698 nM for native agonist epinephrine. Possibly N-24's lack of seven negatively charged residues may improve binding in the absence of syndecan-1.

human syndecan-1 (SDC1) [6] = biological target: T1, human syndecan-1 (SDC1); assay: C-10-intein beads, HEK293T/SDC1 lysate, B-B4 blot
Procedure: as §1

human syndecan-1 (SDC1) [7] = biological target: T1, human syndecan-1 (SDC1); assay: N-15-intein beads, HEK293T/SDC1 lysate, B-B4 blot
Procedure: as §1

human syndecan-1 (SDC1) [8] = biological target: T1, human syndecan-1 (SDC1); assay: C-5-intein beads, HEK293T/SDC1 lysate, B-B4 blot
Procedure: as §1

B1: soluble C-25 lacritin (ligand)
chain: EDASSDSTGADPAQEAGTSKPNEEISGPAEPASPPETTTTAQETSAAAVQGTAKVTSSRQELNPLKSIVEKSILLTEQALAKAGKGMHGGVPGG
notes: Range counted by me
binding result (human syndecan-1 (SDC1) [1]): no binding (tested: 14 µg)

B2: lacritin-intein (lacritin coupled to chitin beads via chitin-binding intein) (ligand, not shown: small tags and cut ends)
chain: EDASSDSTGADPAQEAGTSKPNEEISGPAEPASPPETTTTAQETSAAAVQGTAKVTSSRQELNPLKSIVEKSILLTEQALAKAGKGMHGGVPGGKQFIENGSEFAQKLLKKFSLLKPWA
notes: Bacterial fusion protein held on chitin beads; also called lacritin-intein beads; lacritin column
binding result (human syndecan-1 (SDC1) [2]): binds | binding result (human syndecan-4 (SDC4)): no binding | binding result (human syndecan-2 (SDC2)): no binding

B3: soluble lacritin (recombinant) (ligand)
chain: B2 chain
notes: also called intact lacritin
binding result (human syndecan-1 (SDC1) [3]): binds

B7: N-15 lacritin-intein (ligand, not shown: small tags and cut ends)
chain: AGTSKPNEEISGPAEPASPPETTTTAQETSAAAVQGTAKVTSSRQELNPLKSIVEKSILLTEQALAKAGKGMHGGVPGGKQFIENGSEFAQKLLKKFSLLKPWA
binding result (human syndecan-1 (SDC1) [7]): binds

B9: soluble C-59 lacritin (ligand)
chain: EDASSDSTGADPAQEAGTSKPNEEISGPAEPASPPETTTTAQETSAAAVQGTAKVTSSRQ
notes: Range counted by me
binding result (human syndecan-1 (SDC1) [1]): no binding (tested: 14 µg)

The remaining lines, values ahead:

binding result (human syndecan-1 (SDC1) [4]): binds
B4: N-24 lacritin-intein (ligand, not shown: small tags and cut ends)
chain: ISGPAEPASPPETTTTAQETSAAAVQGTAKVTSSRQELNPLKSIVEKSILLTEQALAKAGKGMHGGVPGGKQFIENGSEFAQKLLKKFSLLKPWA

Ki [5]: 1290 nM | binding result (human syndecan-1 (SDC1) [3]): binds
B5: soluble N-24 lacritin (ligand)
chain: B4 chain
notes: Range counted by me

binding result (human syndecan-1 (SDC1) [6]): binds
B6: C-10 lacritin-intein (ligand, not shown: small tags and cut ends)
chain: EDASSDSTGADPAQEAGTSKPNEEISGPAEPASPPETTTTAQETSAAAVQGTAKVTSSRQELNPLKSIVEKSILLTEQALAKAGKGMHGGVPGGKQFIENGSEFAQKLL

binding result (human syndecan-1 (SDC1) [8]): binds
B8: C-5 lacritin-intein (ligand, not shown: small tags and cut ends)
chain: EDASSDSTGADPAQEAGTSKPNEEISGPAEPASPPETTTTAQETSAAAVQGTAKVTSSRQELNPLKSIVEKSILLTEQALAKAGKGMHGGVPGGKQFIENGSEFAQKLLKKFSL
notes: All lacritin truncations were expressed as intein fusion proteins
